Measured values from publication PMC4382182, “Characterization of Phospho-(Tyrosine)-Mimetic Calmodulin Mutants” (PLoS ONE, 2015).

Target: endothelial nitric oxide synthase (eNOS) (bovine recombinant baculovirus-expressed in Sf9 cells) (bovine) (UniProt P29473)
Sequence (P29473 whole entry): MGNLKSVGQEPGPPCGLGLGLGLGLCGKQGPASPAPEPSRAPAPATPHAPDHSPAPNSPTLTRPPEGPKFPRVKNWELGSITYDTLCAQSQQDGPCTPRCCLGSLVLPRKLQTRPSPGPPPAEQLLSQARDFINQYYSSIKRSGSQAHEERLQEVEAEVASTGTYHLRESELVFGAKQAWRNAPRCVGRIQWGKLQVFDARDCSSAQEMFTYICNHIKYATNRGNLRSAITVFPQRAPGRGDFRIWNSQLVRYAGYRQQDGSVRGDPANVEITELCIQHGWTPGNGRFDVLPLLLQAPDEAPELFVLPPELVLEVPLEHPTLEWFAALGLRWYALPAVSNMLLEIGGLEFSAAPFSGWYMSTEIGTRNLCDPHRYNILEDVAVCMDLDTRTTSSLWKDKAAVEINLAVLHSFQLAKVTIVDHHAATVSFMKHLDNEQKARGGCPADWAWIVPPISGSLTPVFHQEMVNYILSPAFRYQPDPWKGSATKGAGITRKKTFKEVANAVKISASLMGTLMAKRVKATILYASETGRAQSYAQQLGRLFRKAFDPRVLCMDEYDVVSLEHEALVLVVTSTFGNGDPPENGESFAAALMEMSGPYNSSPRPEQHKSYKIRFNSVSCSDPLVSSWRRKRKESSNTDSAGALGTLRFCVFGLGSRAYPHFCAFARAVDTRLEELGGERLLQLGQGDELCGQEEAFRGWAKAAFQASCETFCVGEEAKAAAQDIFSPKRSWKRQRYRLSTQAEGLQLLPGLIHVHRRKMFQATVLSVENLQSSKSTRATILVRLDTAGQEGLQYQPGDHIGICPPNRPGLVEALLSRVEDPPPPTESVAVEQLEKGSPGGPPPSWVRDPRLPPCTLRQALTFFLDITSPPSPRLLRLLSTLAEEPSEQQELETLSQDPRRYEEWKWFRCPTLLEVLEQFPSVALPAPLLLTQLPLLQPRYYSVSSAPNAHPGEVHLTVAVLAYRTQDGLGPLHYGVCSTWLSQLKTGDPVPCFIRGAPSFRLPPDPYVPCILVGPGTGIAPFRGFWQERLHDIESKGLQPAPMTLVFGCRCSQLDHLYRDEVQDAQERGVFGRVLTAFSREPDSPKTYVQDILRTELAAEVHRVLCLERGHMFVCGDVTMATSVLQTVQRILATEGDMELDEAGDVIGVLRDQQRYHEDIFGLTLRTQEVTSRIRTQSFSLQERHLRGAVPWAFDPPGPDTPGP

increase of eNOS activity by phospho-(Y)-CaM over that by non-phosphorylated CaM, at increasing concentrations of CaM: 30%
Substance: purified bovine brain phospho-(Y)-CaM (phosphorylated by c-Src and free of non-phosphorylated CaM) (from UniProt P62157 1-149) (natural protein)
